US20220251241A1 (NGM BIOPHARMACEUTICALS, published 2022)

Tests used:
HTRA1-CAT R190A mutant = HTRA1-CAT R190A mutant (human, UniProt Q92743 156-364); experiment: ELISA
Description: (§1) A series of mutated HTRA1-catalytic domain (HTRA1-CAT; amino acids 156-364 of SEQ ID NO:1) proteins containing single amino acid substitutions were generated by standard methods (e.g., site directed mutagenesis). Antibody 24F7 was tested by ELISA for binding to these mutant HTRA1-CAT proteins as well as a wild-type HTRA1 peptide consisting of amino acids […] (SEQ ID NO:92; R190—V201 of SEQ ID NO:1).

HTRA1-CAT P193A mutant = HTRA1-CAT P193A mutant (human, UniProt Q92743 156-364); experiment: ELISA
Description: as §1

HTRA1-CAT F194A mutant = HTRA1-CAT F194A mutant (human, UniProt Q92743 156-364); experiment: ELISA
Description: as §1

HTRA1-CAT R197A mutant = HTRA1-CAT R197A mutant (human, UniProt Q92743 156-364); experiment: ELISA
Description: as §1

[1] = target: T1, wild-type HTRA1 peptide RKLPFSKREVPV (R190-V201 of SEQ ID NO:1) (human); experiment: ELISA
T1 construct: also called Wild type peptide (R190 - V201)
T1 peptide: RKLPFSKREVPV
Description: as §1

[2] = target: T2, HTRA1 (construct not given) (Homo sapiens (Human), UniProt Q92743 23-480, limits assumed); experiment: cell-based or functional assay
[3] = target: endogenously expressed HTRA1 secreted by the human melanoma cell line C32 (human, UniProt Q92743 23-480); experiment: cell-based or functional assay
[4] = target: T2, HTRA1 (construct not stated in the …); experiment: SPR (Biacore), 25° C.
Description: The binding affinities of anti-HTRA1 antibodies to human HTRA1 were measured using a Biacore system (GE Healthcare Life Sciences). Briefly, anti-Fc antibody (Sigma-Aldrich) was immobilized on all four flow cells of a CMS chip using amine coupling reagents (GE Healthcare LifeSciences). Antibodies were captured on flow cells 2, 3, and 4 using flow cell 1 as a reference. […] Kinetic data were collected over time and fit using the simultaneous global fit equation to yield affinity constants (KD values) for each antibody.
(§2) SPR assays were set up using a Biacore system as described herein.

[5] = target: T2, HTRA1 (construct not stated in the …); experiment: SPR (Biacore), 37° C.
Description: (§3) The binding affinities of anti-HTRA1 antibodies to human HTRA1 were measured using a Biacore system (GE Healthcare Life Sciences). Briefly, anti-Fc antibody (Sigma-Aldrich) was immobilized on all four flow cells of a CMS chip using amine coupling reagents (GE Healthcare LifeSciences). Antibodies were captured on flow cells 2, 3, and 4 using flow cell 1 as a reference. Concentrations ranging from 3.3-10 nM of human delta N-HTRA1 were injected at a flow rate of 50 μL/min at 37° C. Kinetic data were collected over time and fit using the simultaneous global fit equation to yield affinity constants (KD values) for each antibody.
as §2

[6] = target: T3, human HTRA1 full length protein (HTRA1-FL) (human, UniProt Q92743 23-480); experiment: SPR (Biacore), 37° C.
T3 construct: also called human HTRA1-FL
Description: as §3
The binding affinity of hz24F7.v2 to a HTRA1 full length protein (HTRA1-FL) or a HTRA1-CAT was determined using a Biacore system as described herein and compared with the binding affinity of the parental 24F7 antibody (see Table 9).

[7] = target: T2, HTRA1 (construct not stated in the …); experiment: cell-based or functional assay; remark: listed apart in the source
[8] = target: T2, HTRA1 (construct not stated in the …); experiment: cell-based or functional assay; remark: listed apart in the source
[9] = target: T2, HTRA1 (construct not stated in the …); experiment: cell-based or functional assay; remark: listed apart in the source
[10] = target: T2, HTRA1 (construct not stated in the …); experiment: protease inhibition assay, casein substrate; apparent Ki (Ki^app)
Source text: (§4) Two enzymatic assays were used to characterize HTRA1 protease activity and evaluate inhibitory activity of anti-HTRA1 antibodies. EnzChek® Protease Assay Kit (ThermoFisher Scientific) was used following the manufacturer's instructions. This kit contains casein protein that is heavily labeled with the pH-insensitive green-fluorescent BOPIPY® FL dye that results in almost total quenching of the conjugate's fluorescence. Protease-catalyzed hydrolysis of labeled casein releases highly fluorescent BODIPY® FL dye-labeled peptides. The concomitant increase in fluorescence is proportional to protease activity.
To confirm that the humanized version of antibody 24F7 retained the ability to inhibit H IRA1 protease activity, hz24F7.v2 was assessed in casein and H2-Opt assays as described herein.

[11] = target: T2, HTRA1 (construct not stated in the …); experiment: protease inhibition assay, H2-Opt peptide substrate; apparent Ki (Ki^app)
[12] = target: T2, HTRA1 (construct not stated in the …); experiment: protease inhibition assay, casein substrate (EnzChek); apparent Ki (Ki^app)
Source text: as §4
Antibodies identified in HTRA1 binding assays were tested for their ability to inhibit HTRA1 protease activity. The range of antibody concentrations was tested to establish a dose response curve and determine IC₅₀ values.

[13] = target: T2, HTRA1 (construct not stated in the …); experiment: protease inhibition assay, H2-Opt peptide substrate (FRET); apparent Ki (Ki^app)
[14] = target: human delta N-HTRA1 (amino acids 156-480 of SEQ ID NO:1) (human, UniProt Q92743 156-480); experiment: SPR (Biacore); antibody captured by anti-Fc, human delta N-HTRA1 injected; temperature of this table not stated
Description: as §3

Sequence of human delta N-HTRA1 (amino acids 156-480 of SEQ ID NO:1) (Q92743 156-480, stated change not applied): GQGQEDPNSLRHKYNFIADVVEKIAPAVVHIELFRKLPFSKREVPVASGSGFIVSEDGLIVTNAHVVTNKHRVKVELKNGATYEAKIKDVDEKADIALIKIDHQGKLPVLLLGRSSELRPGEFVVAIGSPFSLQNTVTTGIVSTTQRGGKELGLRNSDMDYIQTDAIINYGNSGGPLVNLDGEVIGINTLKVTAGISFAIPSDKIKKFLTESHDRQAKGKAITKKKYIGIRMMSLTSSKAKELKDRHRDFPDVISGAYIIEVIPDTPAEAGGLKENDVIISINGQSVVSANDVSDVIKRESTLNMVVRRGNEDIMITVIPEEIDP
T2 sequence (Q92743 23-480 limits assumed): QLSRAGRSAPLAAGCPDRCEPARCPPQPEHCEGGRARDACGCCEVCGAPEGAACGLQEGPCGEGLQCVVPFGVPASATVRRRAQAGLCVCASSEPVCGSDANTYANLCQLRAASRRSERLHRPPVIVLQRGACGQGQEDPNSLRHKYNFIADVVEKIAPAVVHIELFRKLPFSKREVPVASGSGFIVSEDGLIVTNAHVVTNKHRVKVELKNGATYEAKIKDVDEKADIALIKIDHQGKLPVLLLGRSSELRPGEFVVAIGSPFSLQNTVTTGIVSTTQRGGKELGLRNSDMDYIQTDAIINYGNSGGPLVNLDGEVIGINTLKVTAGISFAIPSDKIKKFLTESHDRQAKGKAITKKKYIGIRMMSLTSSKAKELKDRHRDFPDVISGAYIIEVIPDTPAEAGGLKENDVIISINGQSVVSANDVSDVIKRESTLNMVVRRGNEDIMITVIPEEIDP
T3 sequence (Q92743 23-480): as the sequence (Q92743 23-480 limits assumed) above
Sequence of HTRA1-CAT F194A mutant (Q92743 156-364 F194A): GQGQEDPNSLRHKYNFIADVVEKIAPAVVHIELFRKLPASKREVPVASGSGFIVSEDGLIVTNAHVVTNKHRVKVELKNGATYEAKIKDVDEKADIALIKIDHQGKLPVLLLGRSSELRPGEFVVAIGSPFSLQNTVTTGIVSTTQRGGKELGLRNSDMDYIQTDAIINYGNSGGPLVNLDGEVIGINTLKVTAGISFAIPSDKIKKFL
Sequence of HTRA1-CAT R190A mutant (Q92743 156-364 R190A): as the sequence (Q92743 156-364 F194A) above, with R35A, A39F counted along it
Sequence of HTRA1-CAT P193A mutant (Q92743 156-364 P193A): as the sequence (Q92743 156-364 F194A) above, with P38A, A39F counted along it
Sequence of endogenously expressed HTRA1 secreted by the human melanoma cell line C32 (Q92743 23-480): as the sequence (Q92743 23-480 limits assumed) above
Sequence of HTRA1-CAT R197A mutant (Q92743 156-364 R197A): as the sequence (Q92743 156-364 F194A) above, with A39F, R42A counted along it

B1: antibody 24F7 (antibody, V domains shown)
VH: QVQLQQSGAELVRPGASVKLSCKASGYTFTDYEMHWVKQTPVHGLEWIGAIDPETGGTAYNQKFKGKATLTADKSSSTAYMELRSLTSEDSAVYYCTREGYSYDGGGYYFDYWGQGTTLTVSS
VL: QIVLTQSPAIMSASPGEKVTMTCSVSSSVSYMYWYQQKPGSSPRLLIYDTSNLASGVPVRFSGSGSGTSYSLTISRMEAEDAATYYCQQWSSYPTFGGGTKLEIK
notes: Mouse hybridoma monoclonal antibody; also called parental 24F7 antibody
**Q.** What does the source list for B1?
**A.** binding result (HTRA1-CAT R190A mutant): no binding; binding result (HTRA1-CAT P193A mutant): binds; binding result (HTRA1-CAT F194A mutant): binds; binding result (HTRA1-CAT R197A mutant): no binding; binding result [1]: no binding; IC50 of inhibition of HTRA1 protease activity, H2-Opt peptide as substrate [2]: 0.164 nM; IC50 of inhibition of HTRA1 protease activity, casein as substrate [2]: 0.145 nM; IC50 of inhibition of protease activity, EnzChek protease assay with C32 conditioned media [3]: 0.118 nM; Kd [4]: 0.03 nM; koff [4]: 5e-05 s⁻¹; kon [4]: 1.6e+06 M⁻¹ s⁻¹; Kd [5]: 0.021 nM; koff [5]: 8.2e-05 s⁻¹; kon [5]: 4e+06 M⁻¹ s⁻¹; Kd [6]: 0.047 nM; koff [6]: 8.6e-05 s⁻¹; kon [6]: 1.8e+06 M⁻¹ s⁻¹; IC50, Protease Assay-Casein substrate [7]: 0.15 nM; IC50, Protease Assay-H2-Opt peptide [7]: 0.12 nM; IC50, Casein Assay [8]: 0.35 nM; IC50, H2-Opt Assay [8]: 0.17 nM; IC50 (read off the curve), HTRA1 protease assay, casein substrate 0.05 ug/ml (inverted triangles) [9]: ~0.2 nM; IC50 (read off the curve), HTRA1 protease assay, casein substrate 0.1 ug/ml (triangles) [9]: ~0.2 nM; IC50 (read off the curve), HTRA1 protease assay, casein substrate 0.2 ug/ml (circles) [9]: ~0.2 nM; IC50 (read off the curve), HTRA1 protease assay, casein substrate 0.3 ug/ml (squares) [9]: ~0.2 nM; Ki [10]: 0.099 nM; Ki [11]: 0.076 nM; Ki [12]: 0.054 nM; Ki [13]: 0.118 nM; Kd [14]: 0.012 nM; koff [14]: 8.5e-05 s⁻¹; kon [14]: 7.4e+06 M⁻¹ s⁻¹
